To fix the notation:
B1: R54W: site-directed mutant R54W of human QC (protein)
chain: MAGGRHRRVVGTLHLLLLVAALPWASRGVSPSASAWPEEKNYHQPAILNSSALWQIAEGTSISEMWQNDLQPLLIERYPGSPGSYAARQHIMQRIQRLQADWVLEIDTFLSQTPYGYRSFSNIISTLNPTAKRHLVLACHYDSKYFSHWNNRVFVGATDSAVPCAMMLELARALDKKLLSLKTVSDSKPDLSLQLIFFDGEEAFLHWSPQDSLYGSRHLAAKMASTPHPPGARGTSQLHGMDLLVLLDLIGAPNPTFPNFFPNSARWFERLQAIEHELHELGLLKDHSLEGRYFQNYSYGGVIQDDHIPFLRRGVPVLHLIPSPFPEVWHTMDDNEENLDESTIDNLNKILQVFVLEYLHL
B2: W329A: site-directed mutant W329A of human QC (protein)
chain: B1 chain with W54R, W329A
B3: K144A: site-directed mutant K144A of human QC (protein)
chain: B1 chain with W54R, K144A
B4: W207F: site-directed mutant W207F of human QC (protein)
chain: B1 chain with W54R, W207F
B5: E201D: site-directed mutant E201D of human QC (protein)
chain: B1 chain with W54R, E201D
B6: W207L: site-directed mutant W207L of human QC (protein)
chain: B1 chain with W54R, W207L
B7: Q304L: site-directed mutant Q304L of human QC (protein)
chain: B1 chain with W54R, Q304L
B8: F325A: site-directed mutant F325A of human QC (protein)
chain: B1 chain with W54R, F325A
B9: F146A: site-directed mutant F146A of human QC (protein)
chain: B1 chain with W54R, F146A

Substitutions are numbered along the chain they refer to. Names may count otherwise.

By Km is commonly meant the concentration of substrate that gives half-maximal velocity. For orientation: kcat means the number of substrate molecules converted per active site and unit of time at saturation.

The subject of this data set is human QC. As to the kind of experiment: Kinetic parameters of wild-type and mutant human QC. In kind it is biochemical. To be noted: pH 8.0.
B1: the Km worked out at 760 ± 40 µM and the kcat came out at 7.35 ± 0.26 s⁻¹.
In the same order, the values of B2 are 29500 ± 2290 µM and 1.35 ± 0.07 s⁻¹.
As to B3, the Km worked out at 1470 ± 20 µM and the catalytic constant (kcat) was 11.67 ± 0.34 s⁻¹.
For the molecule B4, the Km came to 590 ± 50 µM and the turnover number (kcat) stood at 2.32 ± 0.07 s⁻¹.
For the molecule B5, the Michaelis constant (Km) was 12600 ± 2980 µM and the kcat was found to be 0.87 ± 0.28 s⁻¹.
For B6, the Michaelis constant (Km) was 1770 ± 70 µM and the kcat amounted to 0.43 ± 0.01 s⁻¹.
For the molecule B7, the Michaelis-Menten constant (Km) is 1160 ± 90 µM and the kcat turned out to be 9.39 ± 1.18 s⁻¹.
As to B8, the Michaelis constant (Km) is 4670 ± 240 µM and the kcat turned out to be 12.91 ± 0.06 s⁻¹.
Turning to B9, the Km turned out to be 820 ± 160 µM and the kcat is 7.91 ± 2.14 s⁻¹.

Source of the values: patent publication US7892771B2, “Crystal structure of soluble glutaminyl cyclase” (Academia Sinica, priority 2006, dated 2011).
